Laboratory results taken from publication doi:10.1101/2023.10.06.561269 (bioRxiv, 2023).

Target: the molecule itself
Assay: cryo-EM structure

B1: V. cholerae FtsE (natural protein)
chain: MIRFQQVSKAYRGGRQALQKVDFHLRRGEMAFLGGHSGAGKSTLLKLICAIERPTDGKISFNGHDITRIPNKDIPFLRRNIGIVFQDHRLLMDRSIYDNVALPMRIESISENEIKRRVSAALDKTGLLDKARCLPSQLSGGEQQRVGIARAVVNRPTLLLADEPTGNLDPELSSRVLRLFEEFNRAGVTILLATHDIHLVNSRPQYRHLELNQGFLSEVADYGR
Question: Which “stoichiometry N” value does the source give for B1 here?
Answer: 2

B2: V. cholerae FtsX (natural protein)
chain: MAVKPGNQKISKTTKSTKSKPRDVKRAKTDSFLAIHFKQAKASFAALWRRPLGNILTLAVISMALALPASLYLLSKNIASVAERVAEPSQLSVYLHIDTPEPRIIVLKDDLERRDEIAKVKYISPQQGLDDLSQYAGFEQAISLLDNATLPAVLVVTPKVDSREQIQTLAKALQAEEGVTDVRMDEDWFARLDAIRHLATIVVISLSSLMLMSVFLIVGNTLRFNVQANKEEIQTMKLIGATDAYILRPYLYSGMWFGLLGAVAAWLLTALMTILLNGAVEALAQLYDSRFRLIGLGWDESLLLLMLGVFLGCVAAKVSAKRHLKEIEPV
Question: How did the “stoichiometry N” value turn out when B2 was run?
Answer: 2
